Test results taken from the supplement of paper PMC7125110.
± gives the standard error. This sample holds only a part of the variants without activity.

B1: glmS ribozyme (parent)
chain: AUAAAAGCGCCAGAACUACAGAAAUGUAGUUGACGAGGAGGAGGUUUAUCGAAUUUUCGGCGGAUGCCUCCAAA

Legend:
Conditions in all cases: with glucosamine-6-phosphate
glucosamine-6-phosphate [1] = variants of: B1; assay: self-cleavage kobs at 40 uM GlcN6P; higher = faster cleavage; RNA array
Summary of the method: (§1)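 In situ transcription by E. coli RNA polymerase produced barcoded ribozyme variants on sequenced MiSeq chips, and a hybridised Cy3 probe tracked them at 37 °C. Glucosamine-6-phosphate was flowed in at 40 μM to 10 mM in HEPES/KCl/Mg(OAc)2 buffer. kcat and KM were taken from weighted Michaelis–Menten fits of kobs values from exponential decay fits.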

glucosamine-6-phosphate [2] = variants of: B1; assay: self-cleavage kobs at 160 uM GlcN6P; higher = faster cleavage; RNA array
Summary of the method: as §1

glucosamine-6-phosphate [3] = variants of: B1; assay: self-cleavage kobs at 640 uM GlcN6P; higher = faster cleavage; RNA array
Summary of the method: as §1

glucosamine-6-phosphate [4] = variants of: B1; assay: self-cleavage kobs at 2500 uM GlcN6P; higher = faster cleavage; RNA array
Summary of the method: as §1

glucosamine-6-phosphate [5] = variants of: B1; assay: self-cleavage kobs at 10000 uM GlcN6P; higher = faster cleavage; RNA array
Summary of the method: as §1

Row | Variant | self-cleavage kobs at 40 uM GlcN6P (glucosamine-6-phosphate [1]) [s⁻¹] | self-cleavage kobs at 160 uM GlcN6P (glucosamine-6-phosphate [2]) [s⁻¹] | self-cleavage kobs at 640 uM GlcN6P (glucosamine-6-phosphate [3]) [s⁻¹] | self-cleavage kobs at 2500 uM GlcN6P (glucosamine-6-phosphate [4]) [s⁻¹] | self-cleavage kobs at 10000 uM GlcN6P (glucosamine-6-phosphate [5]) [s⁻¹]
1 | AUAAAAGCGCCAGAAUUACAGAAAUGUAGUUGACGAGGAGGAGGUUUAUCGAAUUUUCGGCGGAUGCCCCCAAA [C16U U69C] | 0.000407 ± 8.8e-05 | 0.000359 ± 9e-05 | 0.000778 ± 0.00013 | 0.000683 ± 0.00014 | 0.0036 ± 0.00088
2 | AUAAAAGUGCCAGAACUACAGAAAUGUAGUUGACGAGUAGGAGGUUUAUCGAAUUUUCUGCGGAUGUCUCCAAA [C8U G38U G59U C67U] | < 1e-05 |  |  |  | 
3 | AUAAAAGCUCCAGAACUACAGAAAUGUAGUUGACGAGGAGGAGGUUUAUCGAAUUUUCGGCGGAUGCCCCCAAA [G9U U69C] | < 1e-05 |  |  | < 1e-05 | 
4 | AUAAACGCGCCAGAACUACAGAAAUGUAGUUGACGAGGAGGAGGUUUAUCGAAUUUUCGGCGCAUGCCUCCAAA [A6C G63C] | < 1e-05 |  | < 1e-05 |  | < 1e-05
5 | AUAAAAGCGCCAGAACUACAGAAAUGUAGUUGACAAGGACGAGGUUUAUCGAAUUUUCGGCGGAUGCCUCCAAA [G35A G40C] | < 1e-05 | < 1e-05 | < 1e-05 | < 1e-05 | < 1e-05
6 | AUAAAAGCGCCAGAACUACAGAAAUGUAGUUGACGAGGAGGAGGGUUAUCGAAUUUUCGGCGUCUGCCUCCAAA [U45G G63U A64C] | < 1e-05 |  | < 1e-05 |  | 
7 | AUAAAAGCGCUAGAACUACAGAAAUGUAGUUGACGAGGAGGAGGUUUAUCGAAUUUUCGGCGGCUGCCUCCAAA [C11U A64C] | < 1e-05 |  |  |  | < 1e-05
8 | AUAAAAGCUCCAGAACUACAGAAAUGUAGUUGCCGCGGAGGAGGUCUAUCGAAUUUUCGGCGGAUGCGUCCAAA [G9U A33C A36C U46C C68G] | < 1e-05 |  |  |  | < 1e-05
9 | AUAAAAGCGUCAGAACUACAGAAAUGUAGUUGACGAGGAGAAGGUUUAUCGAAUUUUCGGCGGAUGCCUCCAAA [C10U G41A] | < 1e-05 | < 1e-05 | < 1e-05 | < 1e-05 | < 1e-05
10 | AUAAAAGCGUCAGAACUACAGAAAUGUAGUCGACGAGGAGGAGGUUUAUCGAAUUUUCGGCGGAUUCCUCCAAA [C10U U31C G66U] | < 1e-05 | < 1e-05 |  |  | < 1e-05
11 | AUAAAAGCGCCAGAACUACAGAAAUGUAGUUGACGAGGAGGAGUCUUAUCGAAUUUUCGGCGGAUGCCUCCAAA [G44U U45C] | < 1e-05 |  |  |  | 
12 | AUAAAAGCGACAGAACUACAGAAAUGUAGUUGACGAGGACGAGGUUUAUCGAAUUUUCGGCGGAUGCCUCCAAA [C10A G40C] | < 1e-05 | < 1e-05 | < 1e-05 |  | < 1e-05
13 | AUAAAAGCGCCAGAACUACAGAAAUGUAGUUGUCGAGGAGGAGGUUUAUAGAAUUUUCGGCGGAUGCGUCCAAA [A33U C50A C68G] | 4.36e-05 ± 2e-05 |  |  |  | 
14 | AUAAAAGCGCCGGAACUACAGAAAUGUAGUUAUCGAGGAGGAGGUUUAUCGAAUUUUCGGCGGAUGCCUGCAAA [A12G G32A A33U C70G] | < 1e-05 | < 1e-05 | < 1e-05 |  | 
